# T1: full-length mature human EMR2 (residues Q24-N823) with N-terminal aspartic acid/lysine epitope tag, … (human, UniProt Q9UHX3 24-823)
# T1 sequence: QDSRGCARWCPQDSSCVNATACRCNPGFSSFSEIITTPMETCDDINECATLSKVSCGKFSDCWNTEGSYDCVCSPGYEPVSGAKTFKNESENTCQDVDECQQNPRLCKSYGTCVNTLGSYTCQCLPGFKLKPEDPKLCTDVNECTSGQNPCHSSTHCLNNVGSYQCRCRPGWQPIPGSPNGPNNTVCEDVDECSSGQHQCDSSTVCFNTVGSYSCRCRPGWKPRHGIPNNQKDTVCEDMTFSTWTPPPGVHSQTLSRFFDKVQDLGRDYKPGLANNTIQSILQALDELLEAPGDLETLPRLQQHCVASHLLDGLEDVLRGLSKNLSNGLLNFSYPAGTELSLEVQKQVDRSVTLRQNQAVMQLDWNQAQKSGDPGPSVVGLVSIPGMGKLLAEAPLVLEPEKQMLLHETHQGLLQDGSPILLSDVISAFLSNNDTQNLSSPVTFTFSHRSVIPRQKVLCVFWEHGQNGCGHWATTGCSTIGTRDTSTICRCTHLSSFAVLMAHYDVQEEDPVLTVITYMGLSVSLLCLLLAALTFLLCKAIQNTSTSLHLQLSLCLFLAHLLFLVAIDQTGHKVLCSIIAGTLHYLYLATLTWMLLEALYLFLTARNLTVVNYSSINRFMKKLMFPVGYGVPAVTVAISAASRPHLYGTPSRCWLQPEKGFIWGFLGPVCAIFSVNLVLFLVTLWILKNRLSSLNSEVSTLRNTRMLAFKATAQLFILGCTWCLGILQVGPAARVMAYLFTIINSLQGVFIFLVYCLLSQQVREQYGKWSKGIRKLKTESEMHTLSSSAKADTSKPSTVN
# T2: full-length mature cynomolgus EMR2 (residues Q24-N816) with N-terminal aspartic acid/lysine epitope tag, … (cynomolgus monkey (Macaca fascicularis), UniProt A0A2K5WL23 21-816)
# T2 sequence: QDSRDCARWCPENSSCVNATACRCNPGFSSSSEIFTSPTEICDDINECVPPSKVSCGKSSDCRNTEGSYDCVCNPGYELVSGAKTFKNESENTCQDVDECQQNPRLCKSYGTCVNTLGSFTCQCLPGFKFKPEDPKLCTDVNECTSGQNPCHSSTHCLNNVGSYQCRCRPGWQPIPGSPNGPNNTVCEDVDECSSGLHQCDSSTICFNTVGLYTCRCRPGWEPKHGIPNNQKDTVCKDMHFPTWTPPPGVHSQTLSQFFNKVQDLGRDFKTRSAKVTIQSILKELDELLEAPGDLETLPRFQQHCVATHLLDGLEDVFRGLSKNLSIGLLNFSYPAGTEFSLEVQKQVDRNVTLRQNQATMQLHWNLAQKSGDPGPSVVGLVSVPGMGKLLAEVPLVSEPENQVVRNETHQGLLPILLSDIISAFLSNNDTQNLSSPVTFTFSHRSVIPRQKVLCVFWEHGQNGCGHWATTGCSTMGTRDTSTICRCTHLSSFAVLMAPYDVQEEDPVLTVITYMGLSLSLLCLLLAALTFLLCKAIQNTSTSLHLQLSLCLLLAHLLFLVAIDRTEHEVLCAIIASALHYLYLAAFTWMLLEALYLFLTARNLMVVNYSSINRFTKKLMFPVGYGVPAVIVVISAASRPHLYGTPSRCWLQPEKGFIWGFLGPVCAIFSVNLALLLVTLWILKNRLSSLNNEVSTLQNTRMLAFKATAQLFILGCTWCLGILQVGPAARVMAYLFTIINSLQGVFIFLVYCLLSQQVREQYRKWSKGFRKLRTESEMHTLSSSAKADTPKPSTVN
# T3: full-length mature human CD97 (residues Q21-I845) with N-terminal aspartic acid/lysine epitope tag, … (human, UniProt P48960 21-835)
# T3 sequence (looked up): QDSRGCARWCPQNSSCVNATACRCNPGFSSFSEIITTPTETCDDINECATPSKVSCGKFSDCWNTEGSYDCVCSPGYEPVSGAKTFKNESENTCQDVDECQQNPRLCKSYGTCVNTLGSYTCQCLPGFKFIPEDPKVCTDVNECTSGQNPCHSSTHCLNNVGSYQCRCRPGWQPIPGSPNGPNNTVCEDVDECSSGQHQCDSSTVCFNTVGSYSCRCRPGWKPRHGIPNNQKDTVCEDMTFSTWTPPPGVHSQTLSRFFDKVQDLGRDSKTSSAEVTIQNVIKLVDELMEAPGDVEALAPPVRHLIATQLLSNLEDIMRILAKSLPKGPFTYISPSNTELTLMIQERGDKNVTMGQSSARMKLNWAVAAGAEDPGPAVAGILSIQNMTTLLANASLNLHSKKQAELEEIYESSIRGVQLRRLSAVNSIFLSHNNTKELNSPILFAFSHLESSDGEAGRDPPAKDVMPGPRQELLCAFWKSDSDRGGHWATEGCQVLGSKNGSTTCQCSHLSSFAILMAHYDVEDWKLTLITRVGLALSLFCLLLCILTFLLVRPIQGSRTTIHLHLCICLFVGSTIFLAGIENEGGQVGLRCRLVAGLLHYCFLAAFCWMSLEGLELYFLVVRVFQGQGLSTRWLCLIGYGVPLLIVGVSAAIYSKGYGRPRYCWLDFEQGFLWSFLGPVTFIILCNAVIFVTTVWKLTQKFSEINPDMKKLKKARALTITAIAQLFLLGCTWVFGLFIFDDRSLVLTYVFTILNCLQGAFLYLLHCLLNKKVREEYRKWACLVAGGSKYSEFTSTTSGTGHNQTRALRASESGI
# T4: human EMR2 as naturally expressed on primary and PDX tumor cells, blood and bone marrow cells and hematologic … (human, UniProt Q9UHX3 24-823)
# T4 construct: Endogenous protein; also called hEMR2; CD312
# T4 sequence: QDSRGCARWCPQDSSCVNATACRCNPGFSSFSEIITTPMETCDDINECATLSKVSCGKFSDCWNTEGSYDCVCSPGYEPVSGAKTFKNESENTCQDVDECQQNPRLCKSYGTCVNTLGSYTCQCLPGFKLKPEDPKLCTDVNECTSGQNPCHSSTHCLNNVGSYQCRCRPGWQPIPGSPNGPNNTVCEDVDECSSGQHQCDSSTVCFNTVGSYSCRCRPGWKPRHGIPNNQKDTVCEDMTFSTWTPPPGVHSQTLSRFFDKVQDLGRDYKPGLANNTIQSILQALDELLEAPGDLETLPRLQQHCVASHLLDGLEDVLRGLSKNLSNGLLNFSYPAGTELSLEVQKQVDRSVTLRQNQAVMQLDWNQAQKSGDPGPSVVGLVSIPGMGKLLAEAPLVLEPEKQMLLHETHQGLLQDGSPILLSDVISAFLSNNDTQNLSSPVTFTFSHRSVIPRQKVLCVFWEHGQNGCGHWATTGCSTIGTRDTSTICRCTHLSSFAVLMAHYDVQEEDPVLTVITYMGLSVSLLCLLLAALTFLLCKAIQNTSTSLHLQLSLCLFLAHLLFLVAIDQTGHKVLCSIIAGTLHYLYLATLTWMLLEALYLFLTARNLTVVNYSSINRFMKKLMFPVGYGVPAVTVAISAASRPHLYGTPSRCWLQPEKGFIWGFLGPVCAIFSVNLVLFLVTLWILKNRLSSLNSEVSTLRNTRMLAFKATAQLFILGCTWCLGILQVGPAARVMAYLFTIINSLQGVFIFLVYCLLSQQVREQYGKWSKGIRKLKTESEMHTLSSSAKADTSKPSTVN
# Columns and labels:
# [1] = biological target: T1, full-length mature human EMR2 (residues …); test: cell-based or functional assay
# [2] = biological target: T2, full-length mature cynomolgus EMR2 …; test: cell-based or functional assay
# [3] = biological target: T3, full-length mature human CD97 (residues …); test: cell-based or functional assay
# [4] = biological target: T4, human EMR2 as naturally expressed on …; test: flow cytometry on AML33p0 cells, against isotype control
# Method: (§1) AML PDX samples were harvested by extracting both femora and tibiae from a mouse. After removing any attached muscle tissue the bones were combined and grinded up using a mortar and pistil to release the bone marrow from the rest of the bone. Cell suspensions were harvested and red blood cells lysed by exposure to a hypotonic ammonium-chloride-potassium solution (ACK). After 5 min incubation on ice the red blood cell lysis was stopped by adding 2% fetal bovine serum in PBS buffer (FSM), cells harvested by centrifugation and any tissue debris filtered out using a nylon mesh. Primary human AML samples were obtained cryopreserved as Ficol isolated mononuclear cells, thawed, washed once in FSM and used for analysis. Single cell suspensions were incubated with 4′,6-diamidino-2-phenylindole (DAPI) to detect dead cells, anti-human CD45 and CD33 to identify human leukemic cells. […] In order to partition bulk AML leukemic populations into NTG and CSC subpopulations, the PDX tumor cells were further incubated with anti-human CD34 and CD38 or candidate AML CSC markers.
# [5] = biological target: T4, human EMR2 as naturally expressed on …; test: flow cytometry on AML37p0 cells, against isotype control
# Method: as §1
# [6] = biological target: T4, human EMR2 as naturally expressed on …; test: flow cytometry on AML40p0 cells, against isotype control
# Method: AML PDX samples were harvested by extracting both femora and tibiae from a mouse. After removing any attached muscle tissue the bones were combined and grinded up using a mortar and pistil to release the bone marrow from the rest of the bone. Cell suspensions were harvested and red blood cells lysed by exposure to a hypotonic ammonium-chloride-potassium solution (ACK). After 5 min incubation on ice the red blood cell lysis was stopped by adding 2% fetal bovine serum in PBS buffer (FSM), cells harvested by centrifugation and any tissue debris filtered out using a nylon mesh. Primary human AML samples were obtained cryopreserved as Ficol isolated mononuclear cells, thawed, washed once in FSM and used for analysis. Single cell suspensions were incubated with 4′,6-diamidino-2-phenylindole (DAPI) to detect dead cells, anti-human CD45 and CD33 to identify human leukemic cells. The resulting single cell suspensions comprised a bulk sample of tumor and non-tumor cells including both NTG cells and CSCs. In order to partition bulk AML leukemic populations into NTG and CSC subpopulations, the PDX tumor cells were further incubated with anti-human CD34 and CD38 or candidate AML CSC markers.
# [7] = biological target: T4, human EMR2 as naturally expressed on …; test: flow cytometry on AML20p4 PDX cells, against isotype control
# Method: as §1
# [8] = biological target: T4, human EMR2 as naturally expressed on …; test: flow cytometry on AML23p2 PDX cells, against isotype control
# Method: as §1
# [9] = biological target: T4, human EMR2 as naturally expressed on …; test: flow cytometry on AML16-p4 PDX cells, against isotype control
# Method: as §1
# [10] = biological target: T1, full-length mature human EMR2 (residues …); test: flow cytometry on transduced HEK293T; 293 naive MFI 143
# Method: (§2) The exemplary antibodies were also tested using flow cytometry to determine their ability to associate with hEMR2, cEMR2 and CD97 expressed on the surface of cells.
# [11] = biological target: T2, full-length mature cynomolgus EMR2 …; test: as above
# Method: as §2
# [12] = biological target: T3, full-length mature human CD97 (residues …); test: as above
# Method: as §2
# [13] = biological target: T1, full-length mature human EMR2 (residues …); test: flow cytometry on transduced HEK293T; 293 naive MFI 269
# Method: as §2
# [14] = biological target: T2, full-length mature cynomolgus EMR2 …; test: as above
# Method: as §2
# [15] = biological target: T3, full-length mature human CD97 (residues …); test: as above
# Method: as §2
# [16] = biological target: T1, full-length mature human EMR2 (residues …); test: flow cytometry on transduced HEK293T; 293 naive MFI 109
# Method: as §2
# [17] = biological target: T2, full-length mature cynomolgus EMR2 …; test: as above
# Method: as §2
# [18] = biological target: T3, full-length mature human CD97 (residues …); test: as above
# Method: as §2
ΔgMFI [4],ΔgMFI [5],ΔgMFI [6],ΔgMFI [7],ΔgMFI [8],ΔgMFI [9],FC MFI [10],FC MFI [11],FC MFI [12],FC MFI [13],FC MFI [14],FC MFI [15],FC MFI [16],FC MFI [17],FC MFI [18],Binder,"% live, FAB-saporin killing assay [1]","% live, FAB-saporin killing assay [2]","% live, FAB-saporin killing assay [3]"
457,1610,2000,475,547,898,36600,38700,132,–,–,–,–,–,–,"SC93.267 (antibody, V domains shown, Murine hybridoma antibody with a kappa light chain; also called anti-hEMR2 antibody SC93.267) VH: EVQLQQSGPELVKPGASVRMSCKASGYTFTDYNMYWVKQSLGKSLEWIGYIYPNTGGATYNQKFKGKATLTVNKSSSTAFMELRSLTSEDSAVYYCGRGGLGPFAYWGQGTLVTVSA VL: DIQMTQSPSSLSASLGGKVTITCRASQDINKFISWYQHRPGKGPRLLIHYASTLQPGIPSRFSGSGSGRDYSFSISNLEPEDIATYYCLQYDNLWTFGGGTKLEIR",15.6%,27.8%,89%
–,–,–,–,–,–,–,–,–,36400,43800,43300,–,–,–,"SC93.255 (antibody, V domains shown, Murine hybridoma antibody with a kappa light chain) VH: QVQLQQSDAELVKPGSSVKISCKVSGFTFTDHTIHWMKQRPEQGLEWIGYIYPRDGNTKYNEKFTGKATLTADRSSSTAYMQLNSLTSEDSAVYFCASSNWAQWYFDIWGTGTTVTVSS VL: DIQMTQSSSYLSVSLGGRVTITCKASDHINNWLAWYQQKPGNAPRLLIFGATSLETGVPSRFSGSGSGKDYTLSITSLQSEDVGTYYCQQYWSIPYTFGGGTKLEIK",12.1%,9.63%,9.09%
–,–,–,–,–,–,–,–,–,–,–,–,42600,37600,88.3,"SC93.256 (antibody, IgG2a, V domains shown, murine, IgG2a) VH: EVKLEESGGGLVQPGGSMKLSCAASGFTFSDAWMDWVRQSPEKGLEWVAEIRSKVNNHETYYAESVKGRFTISRDDSKSSVYLQMNSLRAEDTGIYYCIRNDYFDYWGQGTTLTVSS VL: DIQMTQTTSSLSASLGDRVTISCSASQGIRNYLNWYQQKPDGTVKLLIYYTSRLHSGVPSRFSGSGSGTDYSLTISNLEPEDIATYYCQQYGKLPYTFGGGTKLEIK",12.5%,12.3%,92.4%

# — patent US20180327506A1 (AbbVie / Abbott, published 2018)
